Earlier results on 1 substance are cited in article PMC7862380.

As a reminder, the Kd is the equilibrium constant for the complex coming apart.

Data set [1] deals with Met1-linked di-ubiquitin (Homo sapiens) (UniProt P0CG48).
In data set [2] the target is Lys63-linked di-ubiquitin (Homo sapiens) (UniProt P0CG48).

Sequence of OTULIN (Q96BN8 whole entry): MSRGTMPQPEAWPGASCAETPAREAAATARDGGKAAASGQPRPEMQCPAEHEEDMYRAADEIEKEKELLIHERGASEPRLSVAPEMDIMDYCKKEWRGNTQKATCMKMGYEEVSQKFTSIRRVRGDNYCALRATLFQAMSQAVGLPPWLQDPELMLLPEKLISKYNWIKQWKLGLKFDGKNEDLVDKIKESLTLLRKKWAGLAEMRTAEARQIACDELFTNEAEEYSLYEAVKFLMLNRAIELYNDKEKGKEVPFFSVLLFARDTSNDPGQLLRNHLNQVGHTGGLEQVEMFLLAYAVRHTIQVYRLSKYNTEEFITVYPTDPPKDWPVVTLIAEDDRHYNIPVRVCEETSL

For OTULIN (from UniProt Q96BN8), the Kd in data set [1] is 0.12 µM; in data set [2], 12 µM.
